Target: EphA2 extracellular domain fused to the Fc portion of an antibody (EphA2 Fc)
Test: ELISA, inhibition of ephrin-A5 AP binding to immobilized EphA2 Fc; representative experiment; concentrations in nM

Sequence of EphA2 extracellular domain fused to the Fc portion of an antibody (EphA2 Fc) (P29317 whole entry, the tested form may be a part): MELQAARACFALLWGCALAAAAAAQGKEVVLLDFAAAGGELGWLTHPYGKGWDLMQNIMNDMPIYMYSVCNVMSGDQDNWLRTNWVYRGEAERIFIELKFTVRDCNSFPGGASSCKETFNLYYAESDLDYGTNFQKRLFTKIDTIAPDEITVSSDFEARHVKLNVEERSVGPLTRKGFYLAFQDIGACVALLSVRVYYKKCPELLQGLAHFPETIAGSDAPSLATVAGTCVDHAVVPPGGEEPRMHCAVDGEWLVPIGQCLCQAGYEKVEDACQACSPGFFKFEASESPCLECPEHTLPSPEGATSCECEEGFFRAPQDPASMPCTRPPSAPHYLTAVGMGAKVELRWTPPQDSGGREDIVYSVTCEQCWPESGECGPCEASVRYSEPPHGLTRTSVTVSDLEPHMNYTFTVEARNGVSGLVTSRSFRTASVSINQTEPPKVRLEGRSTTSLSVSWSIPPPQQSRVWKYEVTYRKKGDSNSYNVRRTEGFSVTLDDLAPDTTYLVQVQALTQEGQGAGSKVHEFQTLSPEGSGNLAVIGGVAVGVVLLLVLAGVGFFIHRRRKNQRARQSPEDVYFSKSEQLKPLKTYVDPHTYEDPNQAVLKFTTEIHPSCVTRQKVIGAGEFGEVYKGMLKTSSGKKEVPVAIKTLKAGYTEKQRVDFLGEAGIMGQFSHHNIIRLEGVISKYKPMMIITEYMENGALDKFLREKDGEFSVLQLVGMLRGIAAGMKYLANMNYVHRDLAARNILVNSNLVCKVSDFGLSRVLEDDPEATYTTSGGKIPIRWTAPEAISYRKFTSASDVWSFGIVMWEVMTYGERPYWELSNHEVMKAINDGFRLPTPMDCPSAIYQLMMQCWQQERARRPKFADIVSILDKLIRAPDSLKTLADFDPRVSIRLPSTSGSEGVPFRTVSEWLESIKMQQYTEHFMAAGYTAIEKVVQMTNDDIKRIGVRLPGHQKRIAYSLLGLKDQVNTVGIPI

IC50 [µM] | Substance
3.5 | YSA1-10am (peptide)
2.8 | YSA-K-bio (peptide)

Source: US12398179
